Substitutions are numbered along the chain they refer to. Numbers in names are those of the source. Blank lines part the entries; values can stand above or below the molecule they belong to.
T1: mHOIL-1L_(1–140) and mSHARPIN_(163–301) applied together (mouse, UniProt Q9WUB0 1-140; Q91WA6 163-301)
T1 construct: mouse HOIL-1L aa 1-140, as m2; The two fragments were mixed and applied together as one SPR analyte; they heterodimerise through their LTMs; also called the two UBL-containing proteins applied simultaneously; both proteins together
T1 sequence (looked up) 1: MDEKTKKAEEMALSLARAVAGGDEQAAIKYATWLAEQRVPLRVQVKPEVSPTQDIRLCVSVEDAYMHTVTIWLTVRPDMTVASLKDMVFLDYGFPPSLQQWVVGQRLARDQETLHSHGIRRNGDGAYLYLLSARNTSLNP
T1 sequence (looked up) 2: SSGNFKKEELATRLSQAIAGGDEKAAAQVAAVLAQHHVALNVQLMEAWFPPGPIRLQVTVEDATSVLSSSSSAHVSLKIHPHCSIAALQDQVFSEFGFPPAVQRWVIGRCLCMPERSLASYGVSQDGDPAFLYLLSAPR

T2: mHOIL-1L_(1–189)-strep (mouse, UniProt Q9WUB0 1-189)
T2 construct: mouse HOIL-1L LTM-UBL, aa 1-189; Captured on the SPR chip with an anti-strep antibody; also called HOIL-1L_(1–189) (LTM-UBL); not shown: strep, C-terminal, kept
T2 sequence (looked up): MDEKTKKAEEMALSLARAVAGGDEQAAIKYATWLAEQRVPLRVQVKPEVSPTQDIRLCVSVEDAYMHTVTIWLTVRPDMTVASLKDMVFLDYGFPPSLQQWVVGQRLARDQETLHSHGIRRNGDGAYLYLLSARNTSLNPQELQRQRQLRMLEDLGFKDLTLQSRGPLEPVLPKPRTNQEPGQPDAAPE

B1: mHOIL-1L_(1–140) (domain or fragment, mouse, UniProt Q9WUB0 1-140, looked up)
chain: T1 sequence (looked up) 1
notes: mouse HOIL-1L, LTM and UBL, aa 1-140; Used as SPR analyte and in the crystal; also called HOIL-1L LTM-UBL (aa 1–140); mHOIL-1L containing UBL (aa 1–140)
B2: GST-mHOIP D-UBA (aa 466–630) UBA2^mut (domain or fragment, mouse, UniProt Q924T7 466-630, looked up)
chain: SCGDPEKQRQDKMRKEGLQLVSMIQEGETAGASPEEVFSALQYSGTEVPLQWLRSELSYVLEMVAELAGQQDPELGAFSCQEARKAWLDRHGNLDEAVEECVRARRRKVHELQSLGFGPKEGSLQALFQHGGDVARALTELARQRAEPAHQRLWDRDPEPTPCWD
notes: also called UBA2^mut [Q607A/L611A/F614A]; not shown: GST, N-terminal, kept
B3: GST-mHOIP D-UBA (aa 466–630) UBA1^mut (domain or fragment, mouse, UniProt Q924T7 466-630, looked up)
chain: B2 chain with R9A, L18A, V21A, A142Q, A146L, A149F
notes: also called UBA1^mut [R474A/L483A/V486A]; not shown: GST, N-terminal, kept
B4: GST-mHOIP_(466–630) (domain or fragment, mouse, UniProt Q924T7 466-630, looked up)
chain: B2 chain with A142Q, A146L, A149F
notes: Captured on the SPR chip via an anti-GST antibody; also called mHOIP fragment containing the UBA domains; not shown: GST, N-terminal, kept
B5: mSHARPIN_(163–301) (domain or fragment, mouse, UniProt Q91WA6 163-301, looked up)
chain: T1 sequence (looked up) 2
notes: No tag is named for these experiments; it may be the same MBP fusion as m12; also called SHARPIN LTM-UBL
B6: MBP-mSHARPIN UBL_(163–301) (domain or fragment, mouse, UniProt Q91WA6 163-301, looked up)
chain: T1 sequence (looked up) 2
notes: not shown: MBP, N-terminal, kept
B7: mHOIP_(474–630) (domain or fragment, mouse, UniProt Q924T7 474-630, looked up)
chain: RQDKMRKEGLQLVSMIQEGETAGASPEEVFSALQYSGTEVPLQWLRSELSYVLEMVAELAGQQDPELGAFSCQEARKAWLDRHGNLDEAVEECVRARRRKVHELQSLGFGPKEGSLQALFQHGGDVARALTELQRQRLEPFHQRLWDRDPEPTPCWD
notes: also called double-UBA (D-UBA) domain
B8: mSHARPIN_(163–341) (domain or fragment, mouse, UniProt Q91WA6 163-341, looked up)
chain: SSGNFKKEELATRLSQAIAGGDEKAAAQVAAVLAQHHVALNVQLMEAWFPPGPIRLQVTVEDATSVLSSSSSAHVSLKIHPHCSIAALQDQVFSEFGFPPAVQRWVIGRCLCMPERSLASYGVSQDGDPAFLYLLSAPREVSGQSLQNSKMDRKLGLFPQSLGLPHDLQPSSSSLPSPS

How the values were obtained:
GST-mHOIP_(466–630) [1] = molecular target: B4; assay: SPR; conditions: response read at end of injection (about 185 s); GST-mHOIP D-UBA WT immobilized with anti-GST antibody; parent: est. 270; read off a plot
mSHARPIN_(163–341) = molecular target: B8; assay: crystal structure; LUBAC ternary complex core; sitting-drop vapor diffusion at 20°C, 1.8 M magnesium sulfate, 0.1 M MES pH 6.5; 2.4 Å; conditions: both partners purified
GST-mHOIP_(466–630) [2] = molecular target: B4; assay: SPR; GST-mHOIP D-UBA (aa 466–630; WT or mutant) immobilised on the sensor chip via an anti-GST antibody; one UBL-containing fragment alone as analyte; conditions: both partners purified
mHOIP_(474–630) = molecular target: B7; assay: SEC; analytical size-exclusion chromatography of the LUBAC core subunits; conditions: both partners purified
[3] = molecular target: T1, mHOIL-1L_(1–140) and mSHARPIN_(163–301) …; assay: SPR; GST-mHOIP D-UBA (aa 466–630; WT or mutant) immobilised via an anti-GST antibody; HOIL-1L and SHARPIN fragments applied together as analytes (500 mg/ml each as printed); stability judged by dissociation; conditions: both partners purified
mHOIL-1L_(1–189)-strep = molecular target: T2, mHOIL-1L_(1–189)-strep; assay: SPR; mHOIL-1L_(1–189)-strep immobilised on the sensor chip with anti-strep antibody; MBP-mSHARPIN fragments as analytes; conditions: both partners purified
mHOIL-1L_(1–140) = molecular target: B1; assay: SEC; analytical size-exclusion chromatography of the LUBAC core subunits; conditions: both partners purified

response (GST-mHOIP_(466–630) [1]): 90 RU
Molecule: mHOIL-1L_(1–140) and mSHARPIN_(163–301) applied together (from UniProt Q9WUB0;Q91WA6) mHOIL-1L: L15A; V19A

response (GST-mHOIP_(466–630) [1]): 70 RU
Molecule: mHOIL-1L_(1–140) and mSHARPIN_(163–301) applied together (from UniProt Q9WUB0;Q91WA6) mSHARPIN: L176A; I180A

Molecule: B1
binding result (mSHARPIN_(163–341)): binds | Kd (GST-mHOIP_(466–630) [2]): 1.34 µM | stoichiometry N (mHOIP_(474–630)): 1

Molecule: B2
binding result [3]: binds

Molecule: B3
binding result [3]: binds

Molecule: B4
koff [3]: 0.000111 s⁻¹

Molecule: B5
Kd (GST-mHOIP_(466–630) [2]): 16 µM

Molecule: B6
Kd (mHOIL-1L_(1–189)-strep): 2.04 µM | koff (mHOIL-1L_(1–189)-strep): 0.00361 s⁻¹

Molecule: B7
binding result (mSHARPIN_(163–341)): binds

Molecule: B8
stoichiometry N (mHOIP_(474–630)): 1 | stoichiometry N (mHOIL-1L_(1–140)): 1

Reference: publication PMC6044281, “Cooperative Domain Formation by Homologous Motifs in HOIL-1L and SHARPIN Plays A Crucial Role in LUBAC Stabilization” (Cell reports, 2018)
